The values below come from US20140120555A1 (PIERRE FABRE MEDICAMENT, published 2014).

Test [1] deals with T1, Recombinant human FcγRIIIA variant V [CD16a], Gln17-Gln208 with C-terminal 6-His tag (human, UniProt P08637 17-208).
T1 construct: range 17-208; 'variant V' is given without a position, so no substitution is written; also called h-FcγRIIIA
As to the kind of experiment: SPR (Biacore X), Mab on CM4 chip, h-FcγRIIIA as analyte, heterogeneous ligand model, minor component. For orientation: Surface plasmon resonance follows binding to a sensor surface in real time, without labels.

For test [2], the target named is T2, Recombinant mouse FcγRI [CD64], Gln25-Pro297 with C-terminal 6-His tag (mouse, UniProt P26151 25-297).
T2 construct: range 25-297; Soluble form bought from R&D Systems; also called m-FcγRI
T2 sequence: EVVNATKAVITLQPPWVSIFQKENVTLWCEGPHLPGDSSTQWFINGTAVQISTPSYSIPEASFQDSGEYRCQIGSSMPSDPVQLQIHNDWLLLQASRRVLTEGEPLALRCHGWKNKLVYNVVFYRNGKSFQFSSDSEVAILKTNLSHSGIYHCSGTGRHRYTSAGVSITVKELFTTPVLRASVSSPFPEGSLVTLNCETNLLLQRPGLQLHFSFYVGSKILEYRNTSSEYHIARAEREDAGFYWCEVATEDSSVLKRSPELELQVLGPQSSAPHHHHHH
Description: SPR (Biacore X), Mab on CM4 chip, m-FcγRI as analyte, heterogeneous ligand model, minor component; minor component (19%), lower end. Here is the method: (§1) 2017 RU of c515H7 Mab were immobilized using the amine coupling kit chemistry on the second flowcell (FC2) of a CM4 sensorchip. The first flowcell (FC1) activated by NHS and EDC mixture and des-activated by ethanolamine served as the reference surface to check and subtract the non specific interaction between the analyte (Fc gamma receptors) and the sensorchip matrix.
(§2) The kinetic experiments were carried out at 25° Celsius at a flow rate of 30 μl/min. The HBS-EP buffer was used either as the running buffer or for the preparation of analyte solutions. The analyte solutions were injected during 90 seconds (association phase) with a 90 seconds delay (dissociation phase). An injection of running buffer as analyte was used as a double reference. All the sensorgrams were corrected by this double reference sensorgram.
(§3) According to this model, the c515H7 Mab Fc domain may be regarded as a mixture of two components.

In test [3] the target is T1, Recombinant human FcγRIIIA variant V …. As to the kind of experiment: SPR (Biacore X), steady-state analysis, response at end of association versus h-FcγRIIIA concentration.
In test [4] the target is T2, Recombinant mouse FcγRI [CD64], …. Description: SPR (Biacore X), steady-state analysis, response at end of association versus m-FcγRI concentration.
The target is the same in test [5]. Description: SPR (Biacore X), Mab on CM4 chip, m-FcγRI as analyte, heterogeneous ligand model, major component; major component (81%), higher value. Here is the method:
as §1, §2, §3

In test [6] the target is T3, Recombinant human FcγRI [CD64], Gln16-Pro288 with C-terminal 6-His tag (human, UniProt P12314 16-288).
T3 construct: range 16-288; Soluble form bought from R&D Systems; also called h-FcγRI
T3 sequence (P12314 other isoform, or with tags, fused parts or gaps limits assumed): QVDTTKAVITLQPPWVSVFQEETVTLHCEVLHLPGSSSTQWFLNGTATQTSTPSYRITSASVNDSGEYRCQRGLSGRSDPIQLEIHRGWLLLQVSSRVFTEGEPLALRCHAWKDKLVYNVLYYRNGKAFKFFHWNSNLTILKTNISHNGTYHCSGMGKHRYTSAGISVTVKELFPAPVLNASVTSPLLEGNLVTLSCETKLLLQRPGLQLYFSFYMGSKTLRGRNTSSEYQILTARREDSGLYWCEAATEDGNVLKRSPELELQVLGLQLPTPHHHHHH
Description: SPR (Biacore X), Mab amine-coupled on CM4 chip, h-FcγRI as analyte, Langmuïr model.

The target of test [7] is T4, Recombinant mouse FcγRIII [CD16], Ala31-Thr215 with C-terminal 10-His tag (mouse, UniProt P08508 31-215).
T4 construct: Soluble form bought from R&D Systems; also called m-FcγRIII
T4 sequence: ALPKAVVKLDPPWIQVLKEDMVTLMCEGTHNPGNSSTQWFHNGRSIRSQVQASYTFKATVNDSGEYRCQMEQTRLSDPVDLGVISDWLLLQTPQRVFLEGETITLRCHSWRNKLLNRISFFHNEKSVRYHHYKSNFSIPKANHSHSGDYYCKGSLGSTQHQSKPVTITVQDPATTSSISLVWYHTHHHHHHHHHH
As to the kind of experiment: SPR (Biacore X), Mab on CM4 chip, m-FcγRIII as analyte, Langmuïr model. Here is the method:
as §1, §2
After each injection of the analyte, the sensorchip was regenerated by injection of 20 mM NaOH, 75 mM NaCl solution.

Test [8] has as its target T1, Recombinant human FcγRIIIA variant V …. Description: SPR (Biacore X), Mab on CM4 chip, h-FcγRIIIA as analyte, heterogeneous ligand model, major component.
In test [9] the target is T3, Recombinant human FcγRI [CD64], …. As to the kind of experiment: SPR (Biacore X): h-FcγRI injected over hz515H7VH1D76NVL2 Mab immobilized on a CM4 sensorchip; heterogeneous ligand model, minor component (1%). Here is the method: (§4) The experiments were carried out using a Biacore X device. The soluble forms of the four Fc […]gamma receptors used in this study were purchased from R&D Systems: […]

Test [10] addresses T2, Recombinant mouse FcγRI [CD64], …. As to the kind of experiment: SPR (Biacore X): m-FcγRI injected over hz515H7VH1D76NVL2 Mab immobilized on a CM4 sensorchip; heterogeneous ligand model, minor component (18%). Here is the method: 1964 RU of hz515H7VH1D76NVL2 Mab were immobilized using the amine coupling kit chemistry on the second flowcell (FC2) of a CM4 sensorchip. The first flowcell (FC1) activated by NHS and EDC mixture and des-activated by ethanolamine served as the reference surface to check and subtract the non specific interaction between the analyte (Fc gamma receptors) and the sensorchip matrix.
as §2
After each injection of the analyte, the sensorchip was regenerated by injection of either 20 mM NaOH solution after h-FcγRI and m-FcγRIII or 10 mM NaOH after h-FcγRIIIA and m-FcγRI.

Test [11] concerns the target T3, Recombinant human FcγRI [CD64], …. Description: SPR (Biacore X): h-FcγRI injected over hz515H7VH1D76NVL2 Mab immobilized on a CM4 sensorchip; Langmuir model. The procedure: as §4

T1 sequence (P08637 other isoform, or with tags, fused parts or gaps mutant limits assumed, form in doubt): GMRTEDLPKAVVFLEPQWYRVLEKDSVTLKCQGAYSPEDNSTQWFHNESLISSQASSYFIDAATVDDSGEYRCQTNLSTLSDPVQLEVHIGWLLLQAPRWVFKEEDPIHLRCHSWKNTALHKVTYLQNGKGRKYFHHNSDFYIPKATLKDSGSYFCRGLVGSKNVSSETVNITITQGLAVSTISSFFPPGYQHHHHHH

B1: chimeric antibody c515H7 (antibody, human IgG1, kappa)
heavy: not shown
light: DIVMSQSPSSLAVSAGEKVTMSCKSSQSLFNSRTRKNYLAWYQQKPGQSPKLLIYWASARDSGVPARFTGSGSETYFTLTISRVQAEDLAVYYCMQSFNLRTFGGGTKLEIKRTVAAPSVFIFPPSDEQLKSGTASVVCLLNNFYPREAKVQWKVDNALQSGNSQESVTEQDSKDSTYSLSSTLTLSKADYEKHKVYACEVTHQGLSSPVTKSFNRGEC
notes: Human IgG1/kappa constant domains; also called c515H7 Mab; chimeric 515H7
As for B1, the Kd is 32 to 37 nM in [1]; 32 to 37 nM in [2]; 160 nM in [3]; 107 nM in test [4]; around 450 nM in [5]; 1.2 nM in test [6]. The Kd in [7] was around 20 nM; in [8], 380 to 450 nM.

B2: humanized antibody Hz515H7 VH1 D76N VL2 (antibody, human IgG1, kappa)
heavy: not shown
light: DIVMTQSPSSLAVSLGERATMSCKSSQSLFNSRTRKNYLAWYQQKPGQSPKLLIYWASARDSGVPARFTGSGSETYFTLTISRVQAEDLAVYYCMQSFNLRTFGQGTKVEIKRTVAAPSVFIFPPSDEQLKSGTASVVCLLNNFYPREAKVQWKVDNALQSGNSQESVTEQDSKDSTYSLSSTLTLSKADYEKHKVYACEVTHQGLSSPVTKSFNRGEC
notes: IgG1/kappa; also called hz515H7VL2; hz515H7-1
As to B2, the Kd in test [1] was 27 to 32 nM; in test [3] it was 176 nM; in test [4], 95 nM; in [6], 0.9 nM; in [9], 0.28 nM; in test [10] it was 90.9 nM. The Kd was 300 to 350 nM in test [8] and 0.93 nM in test [11]. For the same molecule, the results for the koff in test [9], in [10] and in test [11] were 2e-05 s⁻¹, 0.022 s⁻¹ and 0.00054 s⁻¹, respectively. For the same molecule, the kon is 72000 M⁻¹ s⁻¹ in test [9], 242000 M⁻¹ s⁻¹ in [10] and 578000 M⁻¹ s⁻¹ in [11].

A word on the Kd: it is the constant that tells how readily two partners part at equilibrium. The koff is the rate constant with which the complex falls apart. The term kon denotes a measure of how fast the partners come together.
